One series has as its system HeLa cells. As to the kind of experiment: Cellular internalization by flow cytometry. The following applies: for increase in cellular uptake into HeLa cells: 5 μM, 4 h, relative to unmodified lysozyme; for effect of fructose on enhancement of cellular uptake into HeLa cells: fructose 250 mM. In kind it is cell-based. On the procedure:
Cell lines were obtained from American Type Culture Collection (Manassas, Va.) and were maintained according to the recommended guidelines. Cells were grown in a cell culture incubator at 37° C. and 5% CO2 in flat-bottomed culture flasks. Cell media was supplemented with 10% (v/v) GIBCO fetal bovine serum (FBS), 100 units/mL penicillin, and 100 μg/mL streptomycin in the appropriate cellular media for HeLa cells: DMEM, high glucose (Invitrogen, Carlsbad, Calif.). Cells were counted by hemocytometry for dispensing into 12-well plates (Corning Costar, Lowell, Mass.).
BODIPY-FL was excited with a 488 nm solid-state laser and the emission was collected with a 530/30 bandpass filter. At least 10,000 cellular events were acquired for each sample. Data were analyzed using FlowJo 8.1.3 (Treestar, Ashland, Oreg.).
The day prior to the experiment, 1×10^5HeLa cells/well were plated in 12 well plates. The day of the experiment, the appropriate amount of fructose was dissolved into the cellular medium to obtain a final 250 mM fructose concentration, then it was sterile filtered with a 0.45 μm Whatman (Piscataway, N.J.) syringe filter. Non-fructose containing medium was likewise sterile filtered to maintain consistency between the experimental groups. Stock solutions of fluorescently labeled proteins were diluted into the cell culture to a final concentration of 5 μM. proteins were incubated with cells for four hours, then the cells were rinsed twice with PBS, removed from the cell culture plate with trypsin, placed in flow cytometry tubes containing 80 μL of FBS (to ensure cell viability), and incubated on ice until analyzed by flow cytometry. Final fluorescence values were divided by the percent fluorophore labeling of the protein to determine the corrected value of fluorescence. Experiments were run in triplicate (except for PBA-boronated lysozyme, which was in duplicate) and the data is reported as the mean±standard deviation normalized to the wild type protein uptake.
Flow cytometry experiments were conducted as described in Example 11 with Fluorescein-conjugated NeutrAvidin and Boronated Fluorescein-conjugated NeutrAvidin (boronated by complexation to the PBA-boronated Biotin-peptide conjugate) in HeLa cells.
(In flow cytometry, cells or beads pass a laser one at a time.)

In the next series the test system is Pro-5 cells. As to the kind of experiment: Cellular internalization by flow cytometry. In kind it is cell-based, Chinese hamster. On the procedure: (§1) Cell lines were obtained from American Type Culture Collection (Manassas, Va.) and were maintained according to the recommended procedures. Cells were grown in a cell culture incubator at 37° C. under CO2 (5% v/v) in flat-bottomed culture flasks. Cell medium was supplemented with GIBCO fetal bovine serum (FBS) (10% v/v), penicillin (100 units/mL), and streptomycin (100 μg/mL) in the appropriate cellular medium as follows: Pro-5, MEM α+ribonucleosides+deoxyribonucleosides; Lec-2, MEM α-ribonucleosides-deoxyribonucleosides; and K562, RPMI 1640. Cells were counted by hemocytometry for dispensing into 12-well plates (Corning Costar, Lowell, Mass.) or 8-well chambered coverglass slides (Nuc Lab-Tek II, Thermo Scientific).
(§2) BODIPY-FL was excited with a 488 nm solid-state laser and the emission was collected with a 530/30 bandpass filter. To collect the most reproducible data, for every flow cytometry experiment, the sensitivity (voltage) of the photomultiplier tube was set for all data collections using mid-range Rainbow beads from Spherotech (Lake Forest, Ill.) to a predetermined fluorescence target value. At least 10,000 cellular events were acquired for each sample. Data were analyzed using FlowJo 8.1.3 (Treestar, Ashland, Oreg.).
(§3) The day prior to an experiment, Pro-5 and Lec-2 cells were plated in 12-well plates at 1×10^5 cells/well. The day of the experiment, the appropriate amount of fructose was dissolved into the cellular medium to obtain a final fructose concentration of 250 mM, and the medium was passed through a 0.45-μm syringe filter from Whatman (Piscataway, N.J.). Non-fructose-containing medium was filtered likewise. Stock solutions of fluorescently labeled ribonucleases were diluted into the cell culture to a final concentration of 5 μM. Ribonucleases were incubated with cells for 4 h. Cells were then rinsed with PBS (2×400 μL), removed from the cell culture plate with trypsin (400 μL, 0.05% (1×) with EDTA; Invitrogen, Carlsbad, Calif.), placed in flow cytometry tubes containing 80 μL of FBS, and incubated on ice until analyzed by flow cytometry. Final fluorescence values were divided by the percent fluorophore labeling of the ribonuclease to determine the corrected value of fluorescence. Experiments were run twice in triplicate unless otherwise indicated. Data is illustrated in FIG. 4A and FIG. 4C.

A further series concerns Lec-2 cells. As to the kind of experiment: Cellular internalization by flow cytometry. It counts as cell-based, Chinese hamster. On the procedure:
as §1, §2, §3

Series [1] in a line: Hydrolysis of labeled protein by cell lysate. In kind it is in vitro ADME, human. The following applies: K-562 cell lysate, ambient temperature, 12 h, MALDI-TOF. On the procedure:
K-562 cells were grown to confluence in a T75 flask before their collection and lysis with M-PER from Thermo Fisher Scientific. The presence of esterase activity in the lysate was verified by a colorimetric assay using p-nitrophenyl acetate (data not shown). A solution of esterified FLAG-RNase A (10 μg) was added to 200 μL of K-562 cell lysate, and the reaction mixture was nutated at ambient temperature for 12 h. FLAG-RNase A was purified with anti-FLAG® M2 Magnetic Beads from Sigma-Aldrich.

For another series, the system named is K-562 cells. As to the kind of experiment: Cell-proliferation assay, CyQUANT NF. In kind it is cell-based, human. The following applies: 48 h, serum-free RPMI 1640, read-out: IC50, inhibition of K-562 cell proliferation. On the procedure:
The effect of unmodified G88R RNase A and TMLB-G88R RNase A on the proliferation of K-562 cells was assayed using a CyQUANT® NF Cell Proliferation Assay Kit (Invitrogen). Briefly, 5×10^4 cells/mL were added to each well of a 96-well plate in 100 μL of serum-free RPMI 1640 medium. Cells were incubated with G88R RNase A or TMLB-G88R RNase A for 48 h, with PBS and H2O2 serving as negative and positive controls, respectively. Cells were then washed and incubated in CyQUANT® reagent for 30 min and fluorescence intensity was measured with excitation at ˜485 nm and emission detection at ˜530 nm. Data are the average of two measurements for each concentration, and the entire experiment was repeated in triplicate. The results are shown as the percentage of dye incorporated relative to control cells treated with PBS. Values for IC50 were calculated by fitting the curves by nonlinear regression to the equation: y=100%/(1+10^(log(IC50)-log [ribonuclease])h), where y is the total DNA synthesis following the CyQUANT dye pulse and h is the slope of the curve (FIG. 28).

The nature of series [2]: Hydrolysis of labeled protein by cell lysate. It counts as in vitro ADME, Chinese hamster. The conditions noted are these: CHO K1 cell lysate, ambient temperature, 12 h, MALDI-TOF. On the procedure:
CHO K1 cells were grown to confluence in a 10-cm^2 dish before their collection and lysis with M-PER (Thermo Fisher Scientific). The presence of esterase activity in the lysate was verified by a colorimetric assay using p-nitrophenyl acetate (data not shown). A solution of TMLB-GFP (10 μg) was added to 200 μL of CHO K1 cell lysate, and the reaction mixture was nutated at ambient temperature for 12 h. The GFP was subsequently purified with HisPur™ Ni-NTA Magnetic Beads (Thermo Fisher Scientific).

Setting [3] is: 5 μM, 4 h, relative to unmodified RNase A.

Residue numbers refer to the chain shown, from its start. In names and notes the source's numbering stands.

On to “Boronated Fluorescein-conjugated NeutrAvidin: Fluorescein-conjugated NeutrAvidin boronated by complexation to the PBA-boronated Biotin-peptide conjugate”, for which the “increase in internalization in HeLa cells” value in the series on HeLa cells (relative to unmodified Fluorescein-conjugated NeutrAvidin) is “about 2 fold”.
As for “benzoboroxole-boronated lysozyme: chicken egg white lysozyme conjugated with 5-amino-2-hydroxymethylphenylboronic acid, on average 2.3±1.1 per lysozyme”, in the series with HeLa cells, the “increase in cellular uptake into HeLa cells” value was “about 4 fold” and the “effect of fructose on enhancement of cellular uptake into HeLa cells” value is on record as “decreased”.
For “PBA-boronated lysozyme: chicken egg white lysozyme conjugated with 3-aminophenyboronic acid, on average 2.6±1.7 PBA” the same measures were “about 20 fold” and “decreased”.

B1: PBA-boronated RNase A: RNase A conjugated with 3-aminophenylboronic acid, on average 5.3±2.3 PBA per protein (conjugate, UniProt P61823 27-150, looked up)
Ribonuclease pancreatic: KETAAAKFERQHMDSSTSAASSSNYCNQMMKSRNLTKDRCKPVNTFVHESLADVQAVCSQKNVACKNGQTNCYQSYSTMSITDCRETGSSKYPNCAYKTTQANKHIIVACEGNPYVPVHFDASV
modifications: 3-aminophenylboronic acid conjugates
notes: RNase A conjugated with 3-aminophenylboronic acid, on average 5.3±2.3 PBA per protein
B1: the “increase in cellular uptake” value in the series with Pro-5 cells (setting [3]) and with Lec-2 cells (setting [3]) was 2.5-3 fold each time. The “effect of fructose on enhancement of cellular uptake” value with Pro-5 cells (fructose 0.25 M) and in the series on Lec-2 cells (fructose 0.25 M) was “eliminated” throughout.

B2: esterified FLAG-RNase A: FLAG-RNase A labeled with TMLB-NHS ester, 1.6±0.7 labels per protein (conjugate, UniProt P61823 27-150, looked up)
Ribonuclease pancreatic: B1 Ribonuclease pancreatic
modifications: FLAG tag; TMLB ester labels
notes: FLAG-RNase A labeled with TMLB-NHS ester, 1.6±0.7 labels per protein
For B2, the “reversibility of labeling: removal of labels by cell lysate” value in series [1] is given as “regeneration of unlabeled FLAG-RNase A was confirmed”.

B3: G88R RNase A: cytotoxic G88R variant of ribonuclease A (protein, UniProt P61823 27-150, looked up, variant G88R)
Ribonuclease pancreatic: B1 Ribonuclease pancreatic with G88R
Regarding B3, the IC50 with K-562 cells is 6.4 ± 0.1 µM.

B4: TMLB-labeled G88R RNase A: G88R RNase A labeled with TMLB-NHS ester, 2±1 labels per protein (conjugate, UniProt P61823 27-150, looked up, variant G88R)
Ribonuclease pancreatic: B1 Ribonuclease pancreatic with G88R
modifications: TMLB ester labels
notes: G88R RNase A labeled with TMLB-NHS ester, 2±1 labels per protein
As to B4, the “reversibility of labeling: removal of labels by cell lysate” value in series [2] is “removed all of the labels”. Moreover, the IC50 in the series on K-562 cells was 3.5 ± 0.8 µM.

The values above are taken from US9732101B2, “Bioreversible boronates for delivery of molecules into cells” (WISCONSIN ALUMNI RESEARCH FOUNDATION, priority 2012, dated 2017).
